In general, Kd refers to the equilibrium constant for the complex coming apart.

The values that follow come from publication PMC11839890 (European Journal of Nuclear Medicine and Molecular Imaging, 2024).

One data set can be described thus: in vivo. Particulars: mouse; for tissue uptake at 4 h: BALB/c nude (athymic), total radioactivity. The procedure: Biodistribution studies were performed in female athymic BALB/c nude mice (Charles River Laboratories, Sulzfeld, Germany) with A431-CCK2R xenografts induced and animals treated as described previously. The study was approved by the Austrian Ministry of Science (2022–0.351.553). […] Statistical analysis was performed on the data sets using the unpaired two-tailed t-test with a significance level of 0.05.

A further data set relates to A431-CCK2R cells. The note with it: cited from earlier work; for Bmax: A431-CCK2R cells, nM printed only with the first value of the sentence; for Kd: same cell line (A431-CCK2R), nM printed only with the PP-F11N value.
In the next data set the target is T1, human CCK2R (Homo sapiens, UniProt P32239).
T1 construct: expressed in transfected cells; host or cells: A431 human epidermoid carcinoma cells, stably transfected (plasmid pCR3.1), provided by Dr. Luigi Aloj
T1 sequence (P32239 1-447): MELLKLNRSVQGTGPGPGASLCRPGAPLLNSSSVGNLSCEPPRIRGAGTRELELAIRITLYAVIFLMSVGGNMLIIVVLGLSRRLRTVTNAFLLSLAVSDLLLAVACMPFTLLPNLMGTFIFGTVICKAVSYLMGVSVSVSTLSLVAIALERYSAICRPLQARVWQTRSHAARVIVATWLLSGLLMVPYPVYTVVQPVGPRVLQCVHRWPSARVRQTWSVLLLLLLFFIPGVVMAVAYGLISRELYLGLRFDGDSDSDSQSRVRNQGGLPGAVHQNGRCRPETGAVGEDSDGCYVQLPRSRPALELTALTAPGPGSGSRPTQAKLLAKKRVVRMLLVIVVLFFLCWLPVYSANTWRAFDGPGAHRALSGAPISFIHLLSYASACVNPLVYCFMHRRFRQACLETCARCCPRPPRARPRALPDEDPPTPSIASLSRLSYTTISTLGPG
Kind of data set: Saturation binding on A431-CCK2R cells. Particulars: 4°C, read-out: dissociation constant (Kd). On the procedure:
The saturation binding assay was performed on A431-CCK2R cells plated 2 days prior to the assay at a density of 1×10^6 cells per well in 6-well plates. […] Before recovering the cell-associated radioactivity from the wells by using 1 M NaOH (two times), cells were washed twice with ice-cold phosphate-buffered saline (PBS). The radioactivity was then counted using a gamma counter (2480 Wizard2 3”, PerkinElmer Life Sciences and Analytical Instruments, formerly Wallac Oy, Turku, Finland) and non-specific binding was subtracted. For normalization to the number of cells, cells from three different wells were trypsinized and counted by Beckman Coulter Vi-CELL AS cell viability analyser (Beckman Coulter, Fullerton, CA, USA). Three independent assays were performed in triplicate. Binding curves were analysed using GraphPad Prism version 10.1.2 for Windows (GraphPad Software, Boston, Massachusetts USA).

Data set [1] in a line: Biodistribution up to 7 days p.i. / preclinical pharmacokinetics in A431-CCK2R xenografted BALB/c nude mice. It counts as in vivo. Particulars: female, mouse, iv, total radioactivity. The procedure: (§1) The study was approved by the Dutch animal ethics committee (CCD) of the Radboud University and the Nijmegen Medical Centre animal ethics committee (RUDEC) (2020–0007–020). Mice were inoculated with A431-CCK2R cells (2 × 10^6 in 200 μL DMEM medium) at an age of 8–10 weeks. […] Samples were collected, weighted and measured in a gamma counter together with a 1% standard of the injected dose. Results were expressed as percentage of injected activity per gram of tissue (%IA/g), and tumour-to-organ activity ratios were calculated for selected organs. The biodistribution data were used to calculate the kinetics in mouse organs and A431-CCK2R xenografts. A detailed description of the dosimetry calculations and extrapolation from mice to humans can be found in the Supplementary Materials. A one-compartment distribution model was used to characterize the time-activity curves, which were fitted with a single-exponential function implementing Graphpad Prism software. […] Animal dosimetry was performed using the RADAR mouse phantom. The mouse phantom organ weights were used to translate the time-integrated activity concentration coefficients [TIAC] into the regular TIAC. The absorbed dose per given activity was calculated using the MIRD equation (medical internal radiation dose) and the S values obtained from the 25 g RADAR mouse phantom.

The test system of another data set is A431-CCK2R xenografts. The data set is described as above. In kind it is in vivo. The note with it: mouse, in vivo. On the procedure: as §1
Setting [2] is: female, iv, 20 pmol peptide, kidney uptake.
[3] abbreviates: female, iv, 20 pmol peptide, stomach uptake.
The mark [4] stands for this setting: female, iv, 20 pmol peptide, tumour uptake.
[5] abbreviates: BALB/c nude (athymic), in vivo, 20 pmol of peptide, Uptake, A431-CCK2R tumour.
The mark [6] stands for this setting: BALB/c nude (athymic), in vivo, 20 pmol of peptide, Uptake, blood.
Where [7] appears, read: BALB/c nude (athymic), in vivo, 20 pmol of peptide, Uptake, heart.
The mark [8] stands for this setting: BALB/c nude (athymic), in vivo, 20 pmol of peptide, Uptake, kidney.
[9] abbreviates: BALB/c nude (athymic), in vivo, 20 pmol of peptide, Uptake, liver.
Setting [10] is: BALB/c nude (athymic), in vivo, 20 pmol of peptide, Uptake, lung.
Setting [11] is: BALB/c nude (athymic), in vivo, 20 pmol of peptide, Uptake, pancreas.
[12] abbreviates: BALB/c nude (athymic), in vivo, 20 pmol of peptide, Uptake, stomach.
Setting [13] is: athymic BALB/c nude, in vivo, Uptake, femur.
Setting [14] is: athymic BALB/c nude, in vivo, Uptake, heart.
[15] abbreviates: athymic BALB/c nude, in vivo, Uptake, intestine.
The mark [16] stands for this setting: athymic BALB/c nude, in vivo, Uptake, muscle.
[17] abbreviates: athymic BALB/c nude, in vivo, Uptake, spleen.

Read-outs that look alike come from different tables or passages of the source. Non-standard residues stand in square brackets, D forms with d. Residues, ends and D or L forms follow the SMILES beside them. *: point of attachment. DOTA = O=C(O)CN1CCN(CC(=O)O)CCN(CC(=O)*)CCN(CC(=O)O)CC1; 1Nal = N[C@@H](Cc1cccc2ccccc12)C(=O)O; NMeNle = CCCC[C@H](NC)C(=O)O

For `CSCC[C@H](NC(=O)[C@H](Cc1c[nH]c2ccccc12)NC(=O)CNC(=O)[C@H](Cc1ccc(O)cc1)NC(=O)[C@H](C)NC(=O)[C@@H](CCC(=O)O)NC(=O)CN1CCN(CC(=O)O)CCN(CC(=O)O)CCN(CC(=O)O)CC1)C(=O)N[C@@H](CC(=O)O)C(=O)N[C@@H](Cc1cccc2ccccc12)C(N)=O` [[^111In]In-DOTA-[1Nal^8]MG11, metal not drawn] ({DOTA}-[dE]AYGWMD[1Nal]-NH2), the results for the tissue uptake at 4 h in “in vivo” (setting [2]), in “in vivo” (setting [3]) and in “in vivo” (setting [4]) were 1.1 ± 0.1 %ID/g, 1.2 ± 0.3 %ID/g and 1.2 ± 0.2 %ID/g, respectively.

“[^177Lu]Lu-DOTA-PP-F11: 177Lu-labelled DOTA-(DGlu)6-Ala-Tyr-Gly-Trp-Met-Asp-Phe-NH2 (AYGWMDF; 177Lu-DOTA-(DGlu)6, C-terminal amide; printed: Ala-Tyr-Gly-Trp-Met-Asp-Phe-)”: in the data set on A431-CCK2R cells, the Bmax is 0.65 ± 0.06 nM and the Kd is 41.7 ± 9.7 nM.

Consider “[^111In]In-DOTA-PP-F11: 111In-labelled DOTA-(DGlu)6-Ala-Tyr-Gly-Trp-Met-Asp-Phe-NH2 (AYGWMDF; 111In-DOTA-(DGlu)6, C-terminal amide; printed: Ala-Tyr-Gly-Trp-Met-Asp-Phe-)”, for which, in the data set with A431-CCK2R cells, the Bmax is listed as 1.21 ± 0.06 nM and the Kd is 15.9 ± 2.2 nM.

As for `CCCC[C@@H](C(=O)N[C@@H](CC(=O)O)C(=O)N[C@@H](Cc1cccc2ccccc12)C(N)=O)N(C)C(=O)[C@H](Cc1c[nH]c2ccccc12)NC(=O)CNC(=O)[C@H](Cc1ccc(O)cc1)NC(=O)[C@H](C)NC(=O)[C@@H](CCC(=O)O)NC(=O)CN1CCN(CC(=O)O)CCN(CC(=O)O)CCN(CC(=O)O)CC1` [[^111In]In-DOTA-MGS5, metal not drawn], the tissue uptake at 4 h in the data set “in vivo” (setting [2]) turned out to be 3.9 ± 0.5 %ID/g; in the data set “in vivo” (setting [3]), 8.2 ± 2.4 %ID/g.

As for `CCCC[C@@H](C(=O)N[C@@H](CC(=O)O)C(=O)N[C@@H](Cc1ccccc1)C(N)=O)N(C)C(=O)[C@H](Cc1c[nH]c2ccccc12)NC(=O)CNC(=O)[C@H](Cc1ccc(O)cc1)NC(=O)[C@H](C)NC(=O)[C@@H](CCC(=O)O)NC(=O)CN1CCN(CC(=O)O)CCN(CC(=O)O)CCN(CC(=O)O)CC1` [[^111In]In-DOTA-[(N-Me)Nle^6]MG11, metal not drawn] ({DOTA}-[dE]AYGW[NMeNle]DF-NH2), the tissue uptake at 4 h amounted to 3 ± 0.3 %ID/g in the data set “in vivo” (setting [2]), 2.9 ± 0.6 %ID/g in “in vivo” (setting [3]) and 12.3 ± 4.2 %ID/g in the data set “in vivo” (setting [4]).

Regarding `CCCC[C@@H](C(=O)N[C@@H](CC(=O)O)C(=O)N[C@@H](Cc1cccc2ccccc12)C(N)=O)N(C)C(=O)[C@H](Cc1c[nH]c2ccccc12)NC(=O)CNC(=O)[C@H](Cc1ccc(O)cc1)NC(=O)[C@H](C)NC(=O)[C@@H](CCC(=O)O)NC(=O)CN1CCN(CC(=O)O)CCN(CC(=O)O)CCN(CC(=O)O)CC1` [[^177Lu]Lu-DOTA-MGS5, metal not drawn], the Kd at human CCK2R amounted to 5.25 ± 1.61 nM. The tissue uptake at 4 h stood at 22.9 ± 4.7 %ID/g in “in vivo” (uptake in A431-CCK2R xenografts) and 31.9 ± 12.8 %ID/g in the data set “in vivo” (female, iv, 20 pmol peptide, uptake in A431-CCK2R xenografts). Moreover, the tissue uptake in “in vivo” (female, athymic BALB/c nude, tumour uptake) is ~23 %ID/g. For the same compound, the tissue uptake at 1 h came out at 68.1 ± 10 %ID/g in data set [1] (BALB/c nude (athymic), A431-CCK2R tumour xenograft, 20 pmol of peptide, A431-CCK2R xenograft, 1h p.i., i.v., n = 5, read-out: Uptake, A431-CCK2R tumour); 1.9 ± 0.4 %ID/g in data set [1] (setting [6]); 0.8 ± 0.2 %ID/g in data set [1] (setting [7]); 3.7 ± 0.4 %ID/g in data set [1] (setting [8]); 1.3 ± 0.2 %ID/g in data set [1] (setting [9]); 4.6 ± 1.9 %ID/g in data set [1] (setting [10]). In addition, the tissue uptake at 1 h in data set [1] (setting [11]) worked out at 1.7 ± 0.5 %ID/g; in data set [1] (setting [12]), 8.1 ± 0.9 %ID/g; in data set [1] (setting [13]) it was 0.3 ± 0.1 %ID/g; in data set [1] (setting [15]), 1.1 ± 0.3 %ID/g; in data set [1] (setting [16]) it was 0.3 ± 0.2 %ID/g; in data set [1] (setting [17]), 0.6 ± 0.1 %ID/g. The tissue uptake at 24 h in data set [1] (setting [5]) stood at 28.9 ± 7.2 %ID/g; in data set [1] (setting [6]) it was 0.01 ± 0.002 %ID/g; in data set [1] (setting [7]) it was 0.05 ± 0.01 %ID/g; in data set [1] (setting [8]), 2 ± 0.2 %ID/g; in data set [1] (setting [9]) it was 0.5 ± 0.1 %ID/g; in data set [1] (setting [10]), 0.2 ± 0.1 %ID/g. Besides, the tissue uptake at 24 h in data set [1] (setting [11]) came to 0.9 ± 0.2 %ID/g; in data set [1] (setting [12]), 4.9 ± 0.4 %ID/g; in data set [1] (setting [13]) it was 0.052 ± 0.008 %ID/g; in data set [1] (setting [15]), 0.17 ± 0.02 %ID/g; in data set [1] (setting [16]), 0.04 ± 0.01 %ID/g. In addition, the tissue uptake at 72 h in data set [1] (setting [5]) amounted to 12.6 ± 0.3 %ID/g; in data set [1] (setting [6]) it was 0.004 ± 0.002 %ID/g; in data set [1] (setting [8]) it was 1 ± 0.1 %ID/g; in data set [1] (setting [9]), 0.2 ± 0.1 %ID/g; in data set [1] (setting [10]) it was 0.1 ± 0.04 %ID/g; in data set [1] (setting [11]), 0.7 ± 0.2 %ID/g. Moreover, the tissue uptake at 72 h in data set [1] (setting [13]) worked out at 0.032 ± 0.007 %ID/g; in data set [1] (setting [14]) it was 0.026 ± 0.005 %ID/g; in data set [1] (setting [15]), 0.1 ± 0.01 %ID/g; in data set [1] (setting [16]) it was 0.01 ± 0.003 %ID/g. For the same compound, the tissue uptake at 168 h was determined as 2 ± 0.5 %ID/g in data set [1] (setting [5]); 0.01 ± 0.01 %ID/g in data set [1] (setting [6]); 0.4 ± 0.1 %ID/g in data set [1] (setting [8]); 0.08 ± 0.01 %ID/g in data set [1] (setting [9]); 0.04 ± 0.01 %ID/g in data set [1] (setting [10]); 0.6 ± 0.1 %ID/g in data set [1] (setting [11]). Besides, the tissue uptake at 168 h in data set [1] (setting [12]) amounted to 1.3 ± 0.1 %ID/g; in data set [1] (setting [13]) it was 0.06 ± 0.02 %ID/g; in data set [1] (setting [14]) it was 0.018 ± 0.004 %ID/g; in data set [1] (setting [15]), 0.04 ± 0.01 %ID/g; in data set [1] (setting [16]), 0.018 ± 0.005 %ID/g; in data set [1] (setting [17]), 0.09 ± 0.01 %ID/g. The “Uptake, blood” value with A431-CCK2R xenografts (female, BALB/c nude (athymic), iv, 20 pmol of peptide, 24 h) came out at 0.013±0.002 %IA/g. In the data set on A431-CCK2R xenografts (female, athymic BALB/c nude), the “half-life of blood clearance” value is listed as 2.8 h. In the data set with A431-CCK2R xenografts, the “biological half-life of clearance from the tumour” value came to 18.2 h.
